Assay [1] has as its target His-tagged recombinant human FcγRIIIb (human) (UniProt O75015). Kind of assay: SPR; Biacore T200; His-tagged FcγR captured by an anti-His antibody on a CM5 chip; dilution series of antibody as analyte; 1:1 kinetic binding model; triplicate.
In assay [2] the target is His-tagged recombinant human FcγRIIIa (158 V) (human). Described as above.

Several values for one entry are separate records, joined by “and”; a condition that tells them apart may be missing. Equal values may be shown once.

UniProt O75015, sequence (O75015 17-200): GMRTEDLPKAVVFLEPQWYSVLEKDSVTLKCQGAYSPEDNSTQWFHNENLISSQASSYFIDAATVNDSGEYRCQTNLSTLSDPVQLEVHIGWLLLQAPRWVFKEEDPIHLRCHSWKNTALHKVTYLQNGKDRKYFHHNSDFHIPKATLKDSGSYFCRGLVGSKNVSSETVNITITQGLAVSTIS

The term Kd denotes the constant that tells how readily two partners part at equilibrium. Regarding Trastuzumab (EU) (antibody), the Kd in assay [1] came to 13.8 µM; in assay [2] it was 0.193 µM.

Turning to Trastuzumab (US) (antibody), the results for the Kd in assay [1] and in assay [2] were 11.8 µM and 0.146 µM, respectively.

Regarding ABP 980 (antibody), the Kd in assay [1] is 8.14 µM and 8.29 µM; in assay [2] it was 0.0913 µM.

The values are drawn from paper PMC6834741.
